Target: the molecule itself
Experiment: cryo-EM structure; Der^Δ-p97^Δ complex from Sf9 with ATP·BeFx added through the whole purification; closed class 3.65 Å and open (state U) class 4.51 Å

B1: human Derlin-1 Δ215–239, C-terminal twin strep tag (Sf9) (natural protein, UniProt Q9BUN8-1 1-251, looked up)
chain: MSDIGDWFRSIPAITRYWFAATVAVPLVGKLGLISPAYLFLWPEAFLYRFQIWRPITATFYFPVGPGTGFLYLVNLYFLYQYSTRLETGAFDGRPADYLFMLLFNWICIVITGLAMDMQLLMIPLIMSVLYVWAQLNRDMIVSFWFGTRFKACYLPWVILGFNYIIGGSVINELIGNLVGHLYFFLMFRYPMDLGGRNFLSTPQFLYRWLPSRRHNWGQGFRLGDQ
notes: Derlin-1, human, cDNA NCBI NM_024295.6, whole protein with residues 215 to 239 (loop between TM6 and the SHP box) deleted; a PreScission Protease cleavage site stands before the C-terminal twin strep tag; Cleavage of the tag is not described; also called Der^Δ; truncated Derlin-1; source: Sf9, baculovirus (pFastBac-Dual), coexpressed with p97 Δ1–20, co-purified (Strep-Tactin, SEC in GDN); not …
- stoichiometry N: 4

Source: publication PMC10575581 (Science Advances, 2023)
